Experimental data as given in patent US9713645B2, “Short interference RNA gene delivery system for systemic circulation” (INDUSTRY-UNIVERSITY COOPERATION FOUNDATION HANYANG …, priority 2012, dated 2017).

What was measured:
cells = experiment: Intracellular transfection efficiency of D-R9 structures complexed with luciferase DNA; format: cell-based; settings: complexes with luciferase DNA, charge ratio 1:5; FIG. 4
Description: In the PEG-R9 structure, PEG was attached to C-(D-R9)-C. To confirm whether the C-(D-R9)-C structure was optimum, the C-(D-R9)-C structure was compared with G-(D-R9)-G, G-(D-R9)-C, and C-(D-R9)-G structures. Each of the G-(D-R9)-G, G-(D-R9)-C, C-(D-R9)-G, and C-(D-R9)-C delivery systems formed complexes with luciferase DNA in a charge ratio of 1:5. The intracellular transfection efficiencies of the complexes into cells were evaluated.

SCC7 cells [1] = experiment: MTT assay for cell viability; format: cell-based; settings: FIG. 6
Description: Cell viability was measured by MTT [3-(4,5-dimethylthiazol-2-yl)-2,5-diphenyltetrazolium bromide] assay.
SCC7 cells were incubated in a 24-well plate and treated with R9, PEG-R9 complexes, and PEI complexes in the specified charge ratios. 48 h after transfection, 50 μl of MTT reagent and 500 μl of a medium were added to each well, followed by culture at 37° C. for 3 h. After removal of the culture media, 500 μl of dimethyl sulfoxide (DMSO) was added to each well, followed by culture at room temperature for 20 min. The absorbance was measured at 570 nm.

[2] = Sizes and zeta potentials of siVEGF conjugates with different delivery systems; format: physicochemical; settings: FIG. 7
Description: siVEGF was conjugated with different kinds of delivery systems. The sizes and zeta potentials of the conjugates were analyzed to find which delivery system would be optimal for siRNA delivery. A group of cys-R9-cys, PEG-R9, and PEG-cys-R9-cys delivery systems and a group of PEG-cys-R9-cys, PEG-TAT, and PEG-cys-TAT-cys delivery systems were used, and their mean diameters were measured and compared.

SCC7 cells [3] = experiment: Luciferase assay for gene expression efficiency; format: cell-based; settings: plasmid luciferase 4 μg, charge ratio 12, 48 h, FIG. 6
Description: In this example, luciferase gene expression was measured using a luciferase assay kit and cell viability was analyzed by MTT assay.
A luciferase assay kit was purchased from Promega (USA). A DC protein assay kit and a bovine serum albumin standard were purchased from Bio-Rad Laboratories (USA). SCC7 cells were seeded onto a 24-well plate at 2×10^4 cells/well. 24 h after seeding, the cells were transfected with plasmid luciferase (4 μg)/PEG-R9 complexes (charge ratio 12).
PEI complexes in a charge ratio of 8 were used as control. After 48-h incubation, the cells was washed with PBS and treated with 150 μl of a 1× cell lysis buffer reagent for 20 min. The cell lysate was obtained by scrapping, transferred to a 1.5 ml microtube, and centrifuged at 13,000 rpm for 3 min. The luminescence values of the cell lysate were measured using a 96-well plate photometer (Berthold Detection Systems, Germany) with a 20 s integration time and were expressed as relative luminescence units (RLU) per mg of cell protein.
Proteins were determined with the DC protein assay kit using the bovine serum albumin standard. Based on the above procedure, PEG500 and PEG1000 were compared to find which one would be most optimal.

Row | Substance | intracellular transfection efficiency (cells) | cytotoxicity (in words) (SCC7 cells [1]; 48 h after transfection) | cell viability (SCC7 cells [1]) | particle size compared with the PEG-unbound delivery system [2] | intracellular gene delivery efficiency by luciferase assay (SCC7 cells [3])
1 | Cys-(D-R9)-Cys [C-(D-R9)-C] | high transfection efficiencies |  |  |  | 
2 | PEG-Cys-(D-R9)-Cys [PEG-R9] |  | much lower than the other gene delivery systems | at least 95% | smaller | efficiently deliver the gene into the cells
